Assay results reported in paper PMC10502012.

B1: sybody 27 (VHH)
VHH: QVQLVESGGGSVQAGGSLRLSCAASGDIETIWYLGWFRQAPGKEREGVAALSTVTGSTYYADSVKGRFTVSLDNAKNTVYLQMNSLKPEDTALYYCAAAYTGWMAPLWQWVYSYWGQGTQVTVSA

Target: chicken PHT1 (purified, wild type)
Assay: thermal stability (thermal shift) of PHT1 with TASL peptides
Conditions: chain shown with the change; peptide concentration 50 µM; parent: est. 13.6; read off a plot

Chain of chicken PHT1 (purified, wild type) (chain, as listed by the source): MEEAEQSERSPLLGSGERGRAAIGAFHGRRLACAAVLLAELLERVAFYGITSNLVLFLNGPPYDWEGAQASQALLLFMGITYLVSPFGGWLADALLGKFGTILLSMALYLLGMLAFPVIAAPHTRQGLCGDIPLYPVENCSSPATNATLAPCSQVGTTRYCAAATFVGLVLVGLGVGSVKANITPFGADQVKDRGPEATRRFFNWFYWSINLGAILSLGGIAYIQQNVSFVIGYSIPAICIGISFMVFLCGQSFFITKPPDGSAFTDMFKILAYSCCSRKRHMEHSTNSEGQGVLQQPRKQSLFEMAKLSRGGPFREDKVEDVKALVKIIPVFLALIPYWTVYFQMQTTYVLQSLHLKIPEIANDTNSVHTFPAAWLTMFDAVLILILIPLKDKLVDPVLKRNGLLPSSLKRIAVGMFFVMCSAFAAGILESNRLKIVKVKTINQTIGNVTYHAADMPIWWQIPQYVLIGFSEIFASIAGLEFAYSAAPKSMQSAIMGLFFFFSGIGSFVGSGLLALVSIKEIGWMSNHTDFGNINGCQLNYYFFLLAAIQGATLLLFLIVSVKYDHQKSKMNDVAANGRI

| other: ΔTm [Kelvin] | Binder |
| --- | --- |
| 11 | MLSEGALYRIAYL [TASL_(1-13) peptide Y6A] |
| 0.45 | MLSAGYLYRIAYL [TASL_(1-13) peptide E4A] |
| 5.6 | MASEGYLYRIAYL [TASL_(1-13) peptide L2A] |
| 9.9 | MLSEGYLARIAYL [TASL_(1-13) peptide Y8A] |
| 6.9 | MLSEGYLYAIAYL [TASL_(1-13) peptide R9A] |
| 5.1 | ALSEGYLYRIAYL [TASL_(1-13) peptide M1A] |
| 13 | MLAEGYLYRIAYL [TASL_(1-13) peptide S3A] |
| 13 | MLSEGYAYRIAYL [TASL_(1-13) peptide L7A] |

Same assay, conditions: chain shown with the change; peptide concentration 50 µM; read off a plot

| other: ΔTm [Kelvin] | Binder |
| --- | --- |
| 15 | MLSEGYLYRIAYLA [TASL peptide with a length of 14 residues C14A] |

Target: biotinylated chicken PHT1 (BLI sample) (chicken)
Sequence (A6QQL0 other isoform, or with tags, fused parts or gaps): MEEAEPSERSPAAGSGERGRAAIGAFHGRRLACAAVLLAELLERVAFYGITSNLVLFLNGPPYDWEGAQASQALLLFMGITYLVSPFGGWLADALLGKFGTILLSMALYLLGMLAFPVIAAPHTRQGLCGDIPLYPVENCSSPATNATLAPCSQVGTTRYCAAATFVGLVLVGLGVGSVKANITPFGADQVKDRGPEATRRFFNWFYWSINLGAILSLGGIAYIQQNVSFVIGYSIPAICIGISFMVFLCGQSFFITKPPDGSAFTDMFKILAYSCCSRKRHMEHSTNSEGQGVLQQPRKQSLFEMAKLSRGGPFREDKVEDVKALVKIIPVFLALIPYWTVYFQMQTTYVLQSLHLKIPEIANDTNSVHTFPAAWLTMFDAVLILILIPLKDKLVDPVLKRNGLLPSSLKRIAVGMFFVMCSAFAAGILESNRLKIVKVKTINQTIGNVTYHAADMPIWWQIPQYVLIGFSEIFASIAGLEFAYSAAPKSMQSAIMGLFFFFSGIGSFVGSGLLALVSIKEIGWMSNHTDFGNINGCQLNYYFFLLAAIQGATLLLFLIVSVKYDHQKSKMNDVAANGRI
Assay: BLI; biotinylated PHT1 on streptavidin biosensors; Sb27 6-800 nM; 22 °C; 50 mM HEPES pH 7.5, 100 mM NaCl, 0.02% DDM/0.004% CHS, 0.5% BSA; 1:1 binding model
Conditions: not given

| Kd [nM] | Binder |
| --- | --- |
| 400 | B1 |
